T1: PrgI (Salmonella Type III secretion needle protein), recombinant (Salmonella typhimurium (strain LT2) as …, UniProt P41784 1-80)
T1 sequence: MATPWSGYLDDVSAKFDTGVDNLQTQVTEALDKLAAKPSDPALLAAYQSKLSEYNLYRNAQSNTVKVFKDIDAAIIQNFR

T2: PrgI-SipD
T2 construct: also called PrgI-SipD fusion
T2 chain: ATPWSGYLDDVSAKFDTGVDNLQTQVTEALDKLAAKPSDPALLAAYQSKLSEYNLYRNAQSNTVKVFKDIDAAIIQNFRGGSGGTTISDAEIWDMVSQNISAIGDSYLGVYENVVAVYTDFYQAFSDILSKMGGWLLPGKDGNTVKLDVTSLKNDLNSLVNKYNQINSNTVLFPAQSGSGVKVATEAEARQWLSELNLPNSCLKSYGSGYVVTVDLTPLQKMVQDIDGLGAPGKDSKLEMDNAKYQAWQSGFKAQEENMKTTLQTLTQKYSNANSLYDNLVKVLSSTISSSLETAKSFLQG

B1: NBX0209 (VHH)
VHH: QVQLQESGGGLVQAGGSLRLSCAASGFTFSSSIMAWYRQAPGKQREAIASIPSFGSAVYADSVKDRFTISRDNNKNMVYLQMNSLKPEDTAVYYCNTRLYWGQGTQVTVSS
notes: also called Clone 106
B2: NBX0215 (VHH)
VHH: QVQLQESGGGLVQAGGSLRLSCAASGFTFSSAIMAWYRQAPGKQREAIASIPSFGSAVYADSVKDRFTISRDNNKNMVYLQMDSLKPEDTAVYYCNTRLYWGQGTQVTVST
notes: also called Clone 112
B3: NBX0211 (VHH)
VHH: QVQLQESGGGLVQAGGSLRLSCAASGFTFSTNILAWYRQAPGKQREAIASITPFGSAVYANSVKDRFTISRDNNKNMVYLQMNSLKPEDTAVYSCNTQLYWGQGTQVTVST
notes: also called Clone 108
B4: NBX0208 (VHH)
VHH: QVQLQESGGGMVQAGGSLRLACTASGDISTIDVMGWNRQAPGKHRELVAIIARGGTIKYADSVKGRFTISRDNTKNTVTVYLQMNNVNAEDTAVYYCAVDTGSPRLTWGQGTQVTVSS
notes: also called Clone 105
B5: NBX0207 (VHH)
VHH: QVQLQESGGGLVQAGKSLRLSCAASTAILSIDSMGWNRQAVGNQRELVAVIARGGSTKYADSVKGRFTITRDISKNTIYLQMNSLKPEDTGVYYCAADPGGASPLSWGQGTQVTVSL
notes: also called Clone 104
B6: NBX0218 (VHH)
VHH: QVQLQESGGGLVQAGGSLSLSCTASGSAFSGDAMGWYRRAPGKQREFVAGISSGAITNYMDSVKGRFTISRDNAKNTVYLQMTKLKPEDTAVYYCNRIQAVLRGNSGWGQGTQVTVSS
notes: also called Clone 115
B7: NBX0233 (VHH)
VHH: QVQLQESGGGLVQAGGSLSLSCTASGSAFSGDAMGWYRRAPGKQRDFVAGISSGHITNYMDSVKGRFTISRDNAKNTVYLQMTKLKPEDTAVYYCNSITAVLRGNSGWGQGTQVTVSS
notes: also called Clone 130
B8: NBX0231 (VHH)
VHH: QVQLQESGGGLVQAGGSLTLSCTTSGSAFSGDAMGWYRRAPGQEREFVAGISSGGITNYMNFVKGRFTISRDNAKNTVYLQMTSLKPEDTAVYYCNSIKAVLRGNSGWGQGTQVTVSS
notes: also called Clone 128
B9: NBX0235 (VHH)
VHH: QVQLQESGGGLVQAGGSLSLSCRVSGSAFSGDAMGWYRRAPGKQREFVAGISSGGIENYMDSVKGRFTISRDNAKNTVYLRMSSLKPEDTAVYYCNLIKAVLRGNSGWGQGTQVTVSS
notes: also called Clone 132
B10: NBX0220 (VHH)
VHH: QVQLQESGGGLVQAGGSLTLSCTASGSAFSGDAMGWYRRAPGKEREFVAGISSGGIPNYMGSVQGRFTISRDNAKNTVYLQMRRLKPEDTAVYYCNSISAVLRGNGVWGQGTQVTVSS
notes: also called Clone 117
B11: NBX0219 (VHH)
VHH: QVQLQESGGGLVQPGGSLSLSCTASGSAFSGGDAMGWYRRAPGKQREFVAGISSGGIANYMDSVKGRFTISRDNAKKAVYLQMTSLKPEDTALYYCNSITAVLRGNSGWGQGTQVTVSS
notes: also called Clone 116
B12: NBX0221 (VHH)
VHH: QVQLQESGGGLVQAGGSLRLSCAASGLTFNNYAMGWFRQAPGKEREFVATISRDGTNTRYADSVKGRFTISRDNAKNTVDLQMNSLKPEDTAVYYCGVGRGTGYAYTAINEYDYSKWGQGTQVTVSS
notes: also called Clone 118
B13: NBX0227 (VHH)
VHH: QVQLQESGGGLVQAGGSLRLACAASGLTFNNYAMGWFRQAPGKEREFVATISRDGTSTRYADSVKGRFTISRDNAKNTVNLQMNRLKPEDTAVYYCGVGRGSGYAYSAINEYDYSSWGQGTQVTVSS
notes: also called Clone 124
B14: NBX0232 (VHH)
VHH: QVQLQESGGGLVQAGGSLRLSCAASGLTFHNYAMGWFRQAPGKEREFVATISRDGTNTHYADSVKGRFTISRDNAKNTVDLQMNSLKPEDTAVYYCGVGRGSGYAYTAINEYDYSKWGQGTQVTVSS
notes: also called Clone 129
B15: NBX0236 (VHH)
VHH: QVQLQESGGGLVQAGGSLRLSCAASGLTFNNYAMGWFRQAPGKEREFVATISRDGTNTRYADSVKGRFTISRDNAKNTVNLQMNSLKPEDTAVYYCGVGRGTGYAYTAIREHDYSSWGQGTQVTVSS
notes: also called Clone 133
B16: NBX0223 (VHH)
VHH: QVQLQESGGGLVQAGGSLRLSCVASGIDSSFYVMAWYRQAPGKQRELVASISSADSPRYEDFVKGRFTISRDNGKNTVYLQMNSLKPEDTAVYYCYGLYRQVHWGQGTQVTVSS
notes: also called Clone 120
B17: NBX0226 (VHH)
VHH: QVQLQESGGGLVQAGGSLRLSCAASGITSSLYVMAWYRQAPGKQRELVAHINSGDSPRYADFVQGRFTISRDNGKNTVYLQMNSLKPEDTAVYYCYGLYRQVHWGQGTQVTVSS
notes: also called Clone 123
B18: NBX0229 (VHH)
VHH: QVQLQESGGGLVQAGGSLRLSCAASGSGILFRISAMGWYRQAPGKERDLVAGISSGGSTNYADSVKGRFTISRDNAKNTVYLQMNSLKPEDTAVYYCNIVGRTDSWGQGTQVTVSS
notes: also called Clone 126
B19: NBX0224 (VHH)
VHH: QVQLQQSGGGLVQAGGSLRLSCAASGLTFSSYAMGWFRQAPGKEREFIVAIGWSGGSTYYADSVKGRFTISRDNAKNTVYLHMNSLKPEDTAVYYCAARRTTAWGKGTDYWGQGTQVTVSS
notes: also called Clone 121
B20: NBX0228 (VHH)
VHH: QVQLQESGGGLVQAGGSLRLSCAASGIDSSFYVMAWYRQAPGQQRELVASISMTSADSPRYADFVKGRFTISRDNAKSTVYLQMNSLKPEDTAVYYCYGLYRQVHWGQGTQVTVSS
notes: also called Clone 125
B21: NBX0222 (VHH)
VHH: QVQLQESGGGLVQAGGSLRLSCAASGIDSSFYVMAWYRQAPGKQRELVASLGTPDSATYADFVKGRFIISRDNAKSTVYLQMNSLKPEDTAVYYCYGLYRQVYWGQGTQVTVSS
notes: also called Clone 119
B22: NBX0230 (VHH)
VHH: QVQLQESGGGSVQAGGSLRLSCAASARTLSNYAMGWFRQAPGKEREFVATISRSGGSIHYADSVKGRFTISRDNAKNTVNLQMNSLKVEDTAVYYCGRARGTGYAYTALNQYDYDYWGQGTQVTVSS
notes: also called Clone 127
B23: NBX0234 (VHH)
VHH: QVQLQESGGGLVQAGGSLRLSCAASGRTFSTYAMGWFRQAPGKEREFVATISRSGDNIYYADSVKGRFTISRDNAKNTVSLQMNSLKVEDTAVYYCGRARGTGYAHTALNQYDYDYWGQGTQVTVSS
notes: also called Clone 131

From US20190202896A1 (NOVOBIND LIVESTOCK THERAPEUTICS, published 2019) come the findings set out here.

The first experiment concerns the target T1, PrgI (Salmonella Type III secretion …). The experiment can be described thus: phage ELISA, antigen-coated wells, anti-M13-HRP, A405.
B1: the “binding over background (PBS-only wells)” value was at least 4 fold.
As to B2, the “binding over background (PBS-only wells)” value is at least 4 fold.
For B3, the “binding over background (PBS-only wells)” value was at least 4 fold.
As for B4, the “binding over background (PBS-only wells)” value was at least 4 fold.
B5: the “binding over background (PBS-only wells)” value was at least 4 fold.

The target in the next experiment is T2, PrgI-SipD. The experiment is described as above.
Consider B6, for which the “binding over background (PBS-only wells)” value was at least 4 fold.
As for B7, the “binding over background (PBS-only wells)” value was at least 4 fold.
For B8, the “binding over background (PBS-only wells)” value was at least 4 fold.
Still for that read-out and setting: the value for B9 was at least 4 fold.
The same measure, in the same setting: the value for B10 was at least 4 fold; that for B11 was at least 4 fold.
Take B12: the “binding over background (PBS-only wells)” value is at least 4 fold.
On to B13, for which the “binding over background (PBS-only wells)” value is at least 4 fold.
On to B14, for which the “binding over background (PBS-only wells)” value was at least 4 fold.
In the case of B15, the “binding over background (PBS-only wells)” value is at least 4 fold.
Consider B16, for which the “binding over background (PBS-only wells)” value is at least 4 fold.
With B17, the “binding over background (PBS-only wells)” value was at least 4 fold.
B18: the “binding over background (PBS-only wells)” value is at least 4 fold.
On the same count and under the same terms, the value for B19 was at least 4 fold; that for B20 was at least 4 fold; that for B21 was at least 4 fold.
For B22, the “binding over background (PBS-only wells)” value was at least 4 fold.
As for B23, the “binding over background (PBS-only wells)” value is at least 4 fold.
